Source: patent publication US20230331846A1 (INHIBRX, published 2023)
Substitutions are numbered along the chain they refer to. Blank lines part the entries; values can stand above or below the binder they belong to.

What was measured:
canine PD-1 [1] = target: T1, canine PD-1 (canine); assay: flow cytometry on 293FS cells transiently expressing full length canine PD-1
T1 construct: Expressed full length on transiently transfected 293FS cells; also called full length canine PD-1
T1 chain: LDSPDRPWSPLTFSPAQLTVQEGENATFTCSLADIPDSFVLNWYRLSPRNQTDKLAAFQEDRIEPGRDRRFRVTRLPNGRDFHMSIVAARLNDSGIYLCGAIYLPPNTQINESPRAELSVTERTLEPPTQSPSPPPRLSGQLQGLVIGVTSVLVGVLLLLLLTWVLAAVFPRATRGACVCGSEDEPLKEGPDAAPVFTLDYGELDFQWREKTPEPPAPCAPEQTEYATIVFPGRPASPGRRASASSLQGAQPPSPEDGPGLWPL
Description: (§1) Binding of the sdAbs to canine PD-1 was determined as follows. Transiently transfected 293FS cells that express full length canine PD-1 and untransfected 293FS cells were plated at 50,000 cells/well in separate wells. Antibodies were titrated serially diluted 1:3 starting at 400 nM, and detected with anti-canine Fc 647 secondary antibody. Flow cytometric analysis was performed on an Intellicyte iQue analyzer and fluorescence was plotted as median fluorescence intensity.

canine PD-1 [2] = target: T1, canine PD-1; assay: flow cytometry, sdAb titrated on 293FS cells expressing canine PD-1 (title: canPD1 binding), anti-canine Fc 647 secondary
Description: as §1

canine PD-1 [3] = target: T1, canine PD-1; assay: flow cytometry blocking assay: sdAb titrated against 3 nM canine PD-L1-hFc (the blocked ligand) on 293FS cells expressing canine PD-1
Description: (§2) Binding of canine PD-1 to PD-L1 in the presence of the sdAbs described in Example 1 was determined as follows. Each sdAb was incubated for 1 hour at room temperature in a PBS buffer, with 3 or 4 nM canine PD-L1-hFc fusion (Sino Biological) and untransfected 293FS cells or transfected 293FS cells expressing full length canine PD-1 (SEQ ID NO: 1). A fluorescent anti-Fc specific secondary antibody was used to detect […] by flow cytometry using an Intellicyte iQue analyzer. Mean fluorescence intensity was plotted for each concentration of sdAb tested.

canine PD-1 [4] = target: T1, canine PD-1; assay: cell-based or functional assay
canine PD-1 [5] = target: T1, canine PD-1; assay: flow cytometry blocking assay: sdAb titrated against 4 nM canine PD-L1-hFc (the blocked ligand) on 293FS cells expressing canine PD-1
Description: as §2

canine CD64 (canine) = canine CD64 (canine) (UniProt Q7YQJ5); assay: flow cytometry, sdAb titrated on 293FS cells transfected with full length canine CD64, anti-canine Fc 647 secondary
Chain of canine CD64 (canine) (Q7YQJ5 entry or part of it): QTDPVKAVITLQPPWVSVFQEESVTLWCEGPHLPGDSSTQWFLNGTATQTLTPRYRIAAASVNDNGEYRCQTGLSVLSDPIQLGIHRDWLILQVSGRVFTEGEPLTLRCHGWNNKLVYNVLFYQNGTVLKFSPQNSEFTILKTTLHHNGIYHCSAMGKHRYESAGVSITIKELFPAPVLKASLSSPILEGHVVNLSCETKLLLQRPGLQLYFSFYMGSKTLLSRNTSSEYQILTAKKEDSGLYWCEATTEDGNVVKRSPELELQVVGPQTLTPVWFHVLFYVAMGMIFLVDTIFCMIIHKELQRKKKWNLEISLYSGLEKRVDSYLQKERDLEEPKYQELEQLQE

Kd (canine PD-1 [1]): < 10 nM | EC50 (read off the curve) (canine PD-1 [2]): ~2 nM
B1: PD1-8-Fc xEML-DANA (Fc fusion)
chain: QVQLQQSGGGLVQAGGSLRVSCAASGRTFSSYGMGWFRQAPGKEREFVAAISWSGGTQYYADSAKGRFTISRDNAKNTVYLQMNSLKPEDTAVYYCADYTDYVVYRPQEIGYWGQGTQVTVKPENGRVPRPPDCPKCPAPGGPSVFIFPPKPKDTLLIARTPEVTCVVVALDPEDPEVQISWFVDGKQMQTAKTQPREEQFAGTYRVVSVLPIGHQDWLKGKQFTCKVNNKALPSPIERTISKARGQAHQPSVYVLPPSREELSKNTVSLTCLIKDFFPPDIDVEWQSNGQQEPESKYRTTPPQLDEDGSYFLYSKLSVDKSRWQRGDTFICAVMHEALHNHYTQKSLSHSPGK

IC50 (read off the curve) (canine PD-1 [3]): ~2 nM | Kd (canine PD-1 [1]): 8.82 nM | EC50 (read off the curve) (canine PD-1 [2]): ~2 nM | EC50 (nM), CD4 T cells (canine PBMCs, background corrected mean fluorescence intensity) (canine PD-1 [4]): 1.7 nM | EC50 (nM), CD8 T cells (canine PBMCs, background corrected mean fluorescence intensity) (canine PD-1 [4]): 0.764 nM | IC50 (read off the curve) (canine PD-1 [5]): ~6 nM
B2: PD1-14-Fc xEML-DANA (Fc fusion)
chain: QVQLQQSGGGLAQAGGSLRLSCAASGRTVSIYAMGWFRQAPGKEREFVAGIGWNGGTTYYADSVEGRFTISRDHAKNTAYLQMNSLKPEDTAVYYCAAQESAAGTLGDYWGRGTQVTVKPGGGGENGRVPRPPDCPKCPAPGGPSVFIFPPKPKDTLLIARTPEVTCVVVALDPEDPEVQISWFVDGKQMQTAKTQPREEQFAGTYRVVSVLPIGHQDWLKGKQFTCKVNNKALPSPIERTISKARGQAHQPSVYVLPPSREELSKNTVSLTCLIKDFFPPDIDVEWQSNGQQEPESKYRTTPPQLDEDGSYFLYSKLSVDKSRWQRGDTFICAVMHEALHNHYTQKSLSHSPGK
notes: Dimer formation is stated only in embodiment language

Kd (canine PD-1 [1]): 6.65 nM | EC50 (nM), CD4 T cells (canine PBMCs, background corrected mean fluorescence intensity) (canine PD-1 [4]): 9.15 nM | EC50 (nM), CD8 T cells (canine PBMCs, background corrected mean fluorescence intensity) (canine PD-1 [4]): 27.2 nM | IC50 (read off the curve) (canine PD-1 [5]): ~6 nM
B3: czPD1-14v2-Fc xEML-DANA (Fc fusion)
chain: EVQLVESGGGEVKPGGSLRLSCVASGRTVSIYAMGWFRQAPGKEREFVAGIGWNGGTTYYADAVKGRFTISRDNAKNTVYLQMSSLRAEDTAVYYCAAQESAAGTLGDYWGQGTQVTVKPGGGGENGRVPRPPDCPKCPAPGGPSVFIFPPKPKDTLLIARTPEVTCVVVALDPEDPEVQISWFVDGKQMQTAKTQPREEQFAGTYRVVSVLPIGHQDWLKGKQFTCKVNNKALPSPIERTISKARGQAHQPSVYVLPPSREELSKNTVSLTCLIKDFFPPDIDVEWQSNGQQEPESKYRTTPPQLDEDGSYFLYSKLSVDKSRWQRGDTFICAVMHEALHNHYTQKSLSHSPGK
notes: as for B2

Kd (canine PD-1 [1]): 3.24 nM | IC50 (read off the curve) (canine PD-1 [5]): ~6 nM
B4: czPD1-14v3-Fc xEML-DANA (Fc fusion)
chain: B3 chain with N74H
notes: as for B2

Kd (canine PD-1 [1]): 4.15 nM | IC50 (read off the curve) (canine PD-1 [5]): ~6 nM
B5: czPD1-14v1-Fc xEML-DANA (Fc fusion)
chain: B3 chain with N54S

IC50 (read off the curve) (canine PD-1 [3]): ~2 nM | Kd (canine PD-1 [1]): < 10 nM | EC50 (read off the curve) (canine PD-1 [2]): ~2 nM
B6: PD1-5-Fc xEML-DANA (Fc fusion)
chain: QVTLRESGGGLVQPGGSLRLSCAASGLTFGLYAMTWFRQAPGKDREGISCISSSDGSTIYADSVKGRFTASRDNAKDTMYLQMNNLNPEDTAVYYCATDYETRCDYGLRLRDRTAYWGPGTQVTVKPENGRVPRPPDCPKCPAPGGPSVFIFPPKPKDTLLIARTPEVTCVVVALDPEDPEVQISWFVDGKQMQTAKTQPREEQFAGTYRVVSVLPIGHQDWLKGKQFTCKVNNKALPSPIERTISKARGQAHQPSVYVLPPSREELSKNTVSLTCLIKDFFPPDIDVEWQSNGQQEPESKYRTTPPQLDEDGSYFLYSKLSVDKSRWQRGDTFICAVMHEALHNHYTQKSLSHSPGK

IC50 (read off the curve) (canine PD-1 [3]): ~2 nM | Kd (canine PD-1 [1]): < 10 nM | EC50 (read off the curve) (canine PD-1 [2]): ~2 nM
B7: PD1-13-Fc xEML-DANA (Fc fusion)
chain: QVTLKESGGGLVQAGGSLRLSCAASGRTEIIYAMGWFRQAPGKEREFVAGIGWSGGTTYYADSVEGRFTISRDSAKNTVYLQMRSLKPEDTAVYYCAAQDSVAGTLGDYWGQGTQVTVKPGGGGENGRVPRPPDCPKCPAPGGPSVFIFPPKPKDTLLIARTPEVTCVVVALDPEDPEVQISWFVDGKQMQTAKTQPREEQFAGTYRVVSVLPIGHQDWLKGKQFTCKVNNKALPSPIERTISKARGQAHQPSVYVLPPSREELSKNTVSLTCLIKDFFPPDIDVEWQSNGQQEPESKYRTTPPQLDEDGSYFLYSKLSVDKSRWQRGDTFICAVMHEALHNHYTQKSLSHSPGK
notes: as for B2

EC50 (read off the curve) (canine CD64 (canine)): 9 nM
B8: cCD19-4A8-Fc (Fc fusion, part only; not given: CD19 binding part, linker, not shown: another chain or arm of the molecule; small tags and cut ends)
Fc: ENGRVPRPPDCPPCPAPEMLGGPSVFIFPPKPKDTLLIARTPEVTCVVVDLDPEDPEVQISWFVDGKQMQTAKTQPREEQFNGTYRVVSVLPIGHQDWLKGKQFTCKVNNKALPSPIERTISKARGQAHQPSVYVLPPSREELSKNTVSLTCLIKDFFPPDIDVEWQSNGQQEPESKYRTTPPQLDEDGSYFLYSKLSVDKSRWQRGDTFICAVMHEALHNHYTQKSLSHSPGK
